Where “and” joins values, the source holds several entries; their conditions need not be identical. Equal values may be shown once. Read-outs that look alike come from different tables or passages of the source. Blank lines part the entries; values can stand above or below the molecule they belong to. Positions of bridges follow the written chain, without caps; N, C: chain ends. Non-standard residues stand in square brackets, D forms with d. dPhe(4-Br) = N[C@H](Cc1ccc(Br)cc1)C(=O)O; Cit = NC(=O)NCCC[C@H](N)C(=O)O; Nle = CCCC[C@H](N)C(=O)O; Aib = CC(C)(N)C(=O)O
Experiments:
[1] = Plasma protein binding (Centrifree ultrafiltration); assay type: in vitro ADME
Experimental: Solutions of test compound in DMSO were prepared at 1 mM, 100 uM and 10 uM, 5 ul of each solution of test compound was added to 495 uL plasma, and incubated at 25° C. for 5 min. Sample was added to a Centrifree® device, then centrifuged at 2000× g for 20 min to obtain desired filtrate volume. Initial plasma samples and ultrafiltrates were subjected to LC-MS/MS. % Free peptide=(concentration of ultrafiltrates/concentration of plasma)×100%. % Bound=100%−% Free

[2] = Pharmacokinetics: plasma and brain concentration after IP injection; assay type: in vivo, mouse; settings: for Brain concentration, individual mice 1-3 / Plasma concentration, individual mice 1-3: individual animals, listed as setmelanotide
Experimental: FIG. 5. Pharmacokinetic data for an exemplary peptide relative to setmelanotide. Peptides at 1.5 mg/mL in PBS containing 10% DMSO and 10% PEG-400 were given by IP injection (15 mg/kg) to female CD-1 mice (n=15). At the given time points (0.5 h, 2 h, 4 h, 7 h and 24 h), brain samples were taken out and frozen at −80° C. immediately for later preparation and analysis, and blood samples were collected using heparinized calibrated pipettes. Blood samples were centrifuged at 15000 rpm for 10 min. Subsequently, blood plasma was collected from the upper layer. The plasma was frozen at −80° C. for later analysis. Peptide concentrations at times indicated were determined by LC MS/MS, using non-zero standards in blank Plasma and Brain Samples.
The drug at 1.5 mg/mL in PBS containing 10% DMSO and 10% PEG-400 was given by IP injection (15 mg/kg). At the given time points (0.5 h, 2 h, 4 h, 7 h and 24 h), brain samples were taken out and frozen at −80° C. immediately for later preparation and analysis, and blood samples were collected using heparinized calibrated pipettes. Blood samples were centrifuged at 15000 rpm for 10 min. Subsequently, blood plasma was collected from the upper layer. The plasma was frozen at −80° C. for later analysis.
The analytical curves were constructed using non-zero standards in the blank Plasma and Brain Samples. A blank sample (matrix sample processed without internal standard) was used to exclude contamination. The linear regression analysis of CTX1227/setmelanotide were performed by plotting the peak area ratio (y) against the CTX1227/setmelanotide concentration (x) in ng/mL, respectively.

[3] = Mouse plasma stability; assay type: in vitro ADME; settings: pooled mouse plasma, 37° C.
Experimental: FIG. 3. Results of plasma stability testing for control peptides. Compounds shown were incubated in mouse plasma at 37° C. at 1 μM concentrations. 40 ul aliquots were removed at the times indicated and the reactions stopped with the addition of 160 μL cold acetonitrile containing 200 ng/ml of peptide internal standard (IS). The incubation solution was centrifuged at 3500 rpm for 10 minutes to precipitate protein. LC/MS/MS analysis was used to determine the % peptide remaining.
Pooled mouse plasma was prepared and stored at −80° C, prior to use, 396 μL mouse plasma was incubated at 37° C. for 5 minutes in 1.5 mL microcentrifuge tubes. 4 μL of 100 μM test or control compound/peptide was added to each tube and incubated for 0.5, 15, 30, 60, 120, or 240 minutes. An aliquot of 40 μL of each reaction was stopped by the addition of 4 volume of cold acetonitrile containing 200 ng/mL of […] solution was centrifuged at 3500 rpm for 10 minutes to precipitate protein. The supernatant was used for LC/MS/MS analysis. The natural log peak area ratio (compound peak area/internal standard peak area) was plotted against time and the gradient of the line determined.

[4] = target: plasma protein; test: plasma ultrafiltration (Centrifree), LC-MS/MS; peptide 1.0 uM
[5] = target: T1, human MC4R receptor (human, UniProt P32245 1-332); test: cell-based or functional assay
[6] = target: T2, human MC3R (human, UniProt P41968 1-323); test: cell-based or functional assay
[7] = target: T1, human MC4R receptor; test: cell-based or functional assay; remark: listed apart in the source
[8] = target: plasma protein; test: plasma ultrafiltration (Centrifree), LC-MS/MS; peptide 10.0 uM
[9] = target: plasma protein; test: plasma ultrafiltration (Centrifree), LC-MS/MS; peptide 0.1 uM
[10] = target: T2, human MC3R; test: cell-based or functional assay; remark: listed apart in the source

T1 sequence (P32245 whole entry): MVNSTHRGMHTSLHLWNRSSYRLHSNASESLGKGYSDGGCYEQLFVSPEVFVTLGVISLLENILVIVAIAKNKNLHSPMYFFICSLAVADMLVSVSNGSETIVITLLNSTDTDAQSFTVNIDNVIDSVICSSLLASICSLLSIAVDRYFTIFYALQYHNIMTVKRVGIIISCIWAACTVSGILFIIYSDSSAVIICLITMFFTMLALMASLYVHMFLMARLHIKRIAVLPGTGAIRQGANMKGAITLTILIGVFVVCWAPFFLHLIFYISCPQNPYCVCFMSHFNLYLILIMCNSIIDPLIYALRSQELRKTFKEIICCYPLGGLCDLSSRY
T2 sequence (P41968 whole entry): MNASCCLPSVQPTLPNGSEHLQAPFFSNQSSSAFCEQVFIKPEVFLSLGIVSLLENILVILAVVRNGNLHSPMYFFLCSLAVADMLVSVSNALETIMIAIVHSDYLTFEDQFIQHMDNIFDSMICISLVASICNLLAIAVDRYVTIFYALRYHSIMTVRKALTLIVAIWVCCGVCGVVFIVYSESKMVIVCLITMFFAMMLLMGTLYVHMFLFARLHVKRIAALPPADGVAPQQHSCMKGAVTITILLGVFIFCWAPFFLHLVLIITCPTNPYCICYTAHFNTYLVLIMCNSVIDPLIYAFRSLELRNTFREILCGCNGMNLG

Molecule: CC(=O)N[C@@H](CCCN=C(N)N)C(=O)N[C@H]1CSSC[C@H](C(N)=O)NC(=O)[C@H](Cc2c[nH]c3ccccc23)NC(=O)C(CCCN=C(N)N)NC(=O)[C@@H](Cc2ccccc2)NC(=O)[C@H](Cc2cnc[nH]2)NC(=O)[C@@H](C)NC1=O (stereo partly drawn) [CTX-1200, Arg-cyclo(Cys-D-Ala-His-D-Phe-Arg-Trp-Cys), reference compound]
- fraction unbound at 5 min, 0.1 µM ([1]; 0.1 uM): 0.57
- fraction unbound at 5 min, 1 µM ([1]; 1.0 uM): 0.43
- fraction unbound at 5 min, 10 µM ([1]; 10.0 uM): 0.39
- Brain concentration, individual mice 1-3 ([2]; IP 15 mg/kg, 0.5 h, brain, 15 mg/kg): 306.5 ng/g and 231.5 ng/g and 247.5 ng/g
- Plasma concentration, individual mice 1-3 ([2]; IP 15 mg/kg, 0.5 h, plasma, 15 mg/kg): 67000 ng/mL and 37200 ng/mL and 25800 ng/mL
- Brain concentration, individual mice 1-3 ([2]; IP 15 mg/kg, 2 h, brain, 15 mg/kg): 207.5 ng/g and 121.5 ng/g and 220.5 ng/g
- Plasma concentration, individual mice 1-3 ([2]; IP 15 mg/kg, 2 h, plasma, 15 mg/kg): 7190 ng/mL and 11000 ng/mL and 4580 ng/mL
- Brain concentration, individual mice 1-3 ([2]; IP 15 mg/kg, 4 h, brain, 15 mg/kg): BLQ
- Plasma concentration, individual mice 1-3 ([2]; IP 15 mg/kg, 4 h, plasma, 15 mg/kg): 455 ng/mL and 9590 ng/mL and 17.8 ng/mL
- Brain concentration, individual mice 1-3 ([2]; IP 15 mg/kg, 7 h, brain, 15 mg/kg): BlQ and BLQ (2×)
- Plasma concentration, individual mice 1-3 ([2]; IP 15 mg/kg, 7 h, plasma, 15 mg/kg): 64.2 ng/mL and 69.3 ng/mL and 55.3 ng/mL
- Brain concentration, individual mice 1-3 ([2]; IP 15 mg/kg, 24 h, brain, 15 mg/kg): BlQ and BLQ (2×)
- Plasma concentration, individual mice 1-3 ([2]; IP 15 mg/kg, 24 h, plasma, 15 mg/kg): 8.04 ng/mL and 7.37 ng/mL and 8.81 ng/mL
- tissue level at time at 0.5 h ([2]; female, CD-1, mouse, brain, ip, 15 mg/kg, mice, 0.5 h, mean of 3): 262 ng/g
- tissue level at time at 2 h ([2]; female, CD-1, mouse, brain, ip, 15 mg/kg, mice, 2 h, mean of 3): 183 ng/g
- level at 0.5 h ([2]; female, CD-1, mouse, mice, IP 15 mg/kg, 0.5 h, plasma, mean of 3): 43300 ng/mL
- level at 2 h ([2]; female, CD-1, mouse, mice, IP 15 mg/kg, 2 h, plasma, mean of 3): 7590 ng/mL
- level at 4 h ([2]; female, CD-1, mouse, mice, IP 15 mg/kg, 4 h, plasma, mean of 3): 3350 ng/mL
- level at 7 h ([2]; female, CD-1, mouse, mice, IP 15 mg/kg, 7 h, plasma, mean of 3): 62.9 ng/mL
- level at 24 h ([2]; female, CD-1, mouse, mice, IP 15 mg/kg, 24 h, plasma, mean of 3, read-out: Plasma concentration, Mean): 8.07 ng/mL
- half-life at 1 µM [3]: > 3 h

B1: CTX-1228 (peptide)
peptide: Ac-R[Nle]CR[dF]RWC-NH2
modifications: disulfide 3-8
SMILES: CCCC[C@H](NC(=O)[C@H](CCCNC(=N)N)NC(C)=O)C(=O)N[C@H]1CSSC[C@@H](C(N)=O)NC(=O)[C@H](Cc2c[nH]c3ccccc23)NC(=O)[C@H](CCCNC(=N)N)NC(=O)[C@@H](Cc2ccccc2)NC(=O)[C@H](CCCNC(=N)N)NC1=O
- Protein Binding (%) [4]: 39%
- % max activation [5]: 102%
- cAMP EC50 [5]: 0.2 nM
- % max activation [6]: 93%
- cAMP EC50 [6]: 1.6 nM
- MC4R selectivity vs MC1R [7]: 3.16
- MC4R selectivity vs MC3R [7]: 8.38
- Protein Binding (%) [8]: 39%
- Protein Binding (%) [9]: 37%

B4: CTX-1211 (peptide)
peptide: Ac-RC[dA]R[dF]RWC-NH2
modifications: disulfide 2-8
SMILES: CC(=O)N[C@@H](CCCNC(=N)N)C(=O)N[C@H]1CSSC[C@@H](C(N)=O)NC(=O)[C@H](Cc2c[nH]c3ccccc23)NC(=O)[C@H](CCCNC(=N)N)NC(=O)[C@@H](Cc2ccccc2)NC(=O)[C@H](CCCNC(=N)N)NC(=O)[C@@H](C)NC1=O
- Protein Binding (%) [4]: 63%
- % max activation [5]: 96%
- cAMP EC50 [5]: 0.38 nM
- % max activation [6]: 91%
- cAMP EC50 [6]: 2.1 nM
- MC4R selectivity vs MC1R [7]: 3.12
- MC4R selectivity vs MC3R [7]: 5.49
- Protein Binding (%) [8]: 61%
- Protein Binding (%) [9]: 51%

B6: CTX-1227 (peptide)
peptide: Ac-R[Nle]CH[dF]RWC-NH2
modifications: disulfide 3-8
SMILES: CCCC[C@H](NC(=O)[C@H](CCCNC(=N)N)NC(C)=O)C(=O)N[C@H]1CSSC[C@@H](C(N)=O)NC(=O)[C@H](Cc2c[nH]c3ccccc23)NC(=O)[C@H](CCCNC(=N)N)NC(=O)[C@@H](Cc2ccccc2)NC(=O)[C@H](Cc2c[nH]cn2)NC1=O
- Protein Binding (%) [4]: 47%
- % max activation [5]: 103%
- cAMP EC50 [5]: 0.3 nM
- % max activation [6]: 96%
- cAMP EC50 [6]: 2.8 nM
- MC4R selectivity vs MC1R [7]: 0.92
- MC4R selectivity vs MC3R [7]: 11
- Protein Binding (%) [8]: 54%
- Protein Binding (%) [9]: 50%

Next, values leading:

- Protein Binding (%) [4]: 58%
- % max activation [5]: 96%
- cAMP EC50 [5]: 7 nM
- % max activation [6]: 44%
- cAMP EC50 [6]: 211 nM
- MC4R selectivity vs MC1R [7]: 6.59
- MC4R selectivity vs MC3R [7]: 30
- Protein Binding (%) [8]: 62%
- Protein Binding (%) [9]: 52%
B2: CTX-1268 (peptide)
peptide: Ac-RCAR[dF]R[dW]C-NH2
modifications: disulfide 2-8

- Protein Binding (%) [4]: 39%
- % max activation [5]: 94%
- cAMP EC50 [5]: 1.7 nM
- % max activation [6]: 28%
- cAMP EC50 [6]: 4.9 nM
- MC4R selectivity vs MC1R [7]: 134
- MC4R selectivity vs MC3R [7]: 2.9
- Protein Binding (%) [8]: 41%
- Protein Binding (%) [9]: 45%
B3: CTX-1285 (peptide)
peptide: Ac-RC[dA][Cit][dF]RWC-NH2
modifications: disulfide 2-8

- Protein Binding (%) [4]: 44%
- Protein Binding (%) [8]: 43%
- % max activation [10]: 21%
- Protein Binding (%) [9]: 73%
B5: CTX-1246 (peptide)
peptide: Ac-RC[Aib]R[dPhe(4-Br)]R[dW]C-NH2
modifications: disulfide 2-8
SMILES: CC(=O)N[C@@H](CCCNC(=N)N)C(=O)N[C@H]1CSSC[C@@H](C(N)=O)NC(=O)[C@@H](Cc2c[nH]c3ccccc23)NC(=O)[C@H](CCCNC(=N)N)NC(=O)[C@@H](Cc2ccc(Br)cc2)NC(=O)[C@H](CCCNC(=N)N)NC(=O)C(C)(C)NC1=O
